The text below walks through data of the nanobody polyreactivity screen of Harvey et al. (2022).

A short description of the data set: yeast display, Sf9 membrane polyspecificity reagent, FACS + sequencing; frameworks hold sequencing errors. Put shortly:
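A nanobody's polyreactivity label depends on the gate it was sorted from. Yeast display cells were stained with 10% biotinylated, detergent-solubilized Sf9 membrane reagent for 1 hour at 4 °C, enriched on streptavidin microbeads and sorted by FACS. The low and high (top ~1%) gates were set on anti-HA fluorescence for expression and streptavidin fluorescence for reagent binding.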
For “QVQLVESGGGLVQAGGILRLSCAASGSTFVTYTMGWYRQAPGKERELVATITTSGGSTYYADSVKGRFTISRDNAKNTVYLQMNSLKPEDTAVYYCAADWDPGYYVQYGYDYWGQGTQVTVSS”, the “polyreactivity (PSR sort gate)” value is recorded as “low polyreactivity”.

For the sequence “QVQLVESGGGLVQAGGILRLSCAASGSTFYIYAMGWYRQAPGKERELVAAISTTDGTTYYADSVKGRFTISRDNAKNTVYLQMNSLKPEDTAVYYWAAEWFGSVQPAYDYWGQGTQVTVSS”, the “polyreactivity (PSR sort gate)” value was “high polyreactivity”.

In the case of “QVQLVESGGGLVQAGGILRLSCAASGSTFYYYAMGWYRQAPGKERELVAAISSSGGTTYYADSVKGRLTISRDNAKNTVYLQMNSLKAEVTAVYYCAAQRYPSSLYQRFYYWGQGTQVTVSS”, the “polyreactivity (PSR sort gate)” value is listed as “high polyreactivity”.

On to “QVQLVESGGGLVQAGGILRLSCAASGSTLGKNAMGWYRQAPGKERELVAAISYSGGSTYYADSVKGRFTISRDNAKNTVYLQMNSLKPEDTAVYYCAAQRRYHYWGQGTQVTVSS”, for which the “polyreactivity (PSR sort gate)” value was “low polyreactivity”.

On to “QVQLVESGGGLVQAGGILRLSCAASGYTFWDYAMGWYRQAPGKEREFVAGISFSDGGTYYADSVKVRFTISRDNAKNTVYLQMNSLKPEDTAVYYCAVPQDSGYGVSEHYNWGQGTQVTVSS”, for which the “polyreactivity (PSR sort gate)” value is reported as “low polyreactivity”.

Consider “QVQLVESGGGLVQAGGILRLSCAAYGSIFPHNAMGWYRQAPGKERELVASITSRGGITYYADSVKGRFTISRDNAKNTGYLQMNSLIPEDTAVYYCAGDLYIYPYDYWGQGTQVTVSS”, for which the “polyreactivity (PSR sort gate)” value is listed as “low polyreactivity”.

Consider “QVQLVESGGGLVQAGGILRLSCAPSGRIFKYYGMGWYRQAPGKERELVAAIYRGSSTNYAHSVKGRFTISRDNAKNTVYLQMNSLKPEDTAVYYCAKVGWSRRYYYWGQGTQVTVSS”, for which the “polyreactivity (PSR sort gate)” value is reported as “high polyreactivity”.

Turning to “QVQLVESGGGLVQAGGILRLSCPASGSTLDRYVMGWYRQAPGKERELVAVISQSGGSTYYADSVKGRFTISRDNAKNTVYLQINSLKPEDTAVYYCAAKRYSFAYRQYDYWGQGTQVTVSS”, the “polyreactivity (PSR sort gate)” value is given as “high polyreactivity”.

“QVQLVESGGGLVQAGGILRLSSAASGSTFTLNAMGWYRQEPGKERELVADITSGGGGTYYADSVKGRFTISRDNAKNTVYLQMNSLKPEDTAVYYCAADDFHSLLGYWYGLFDFWGQGTQVTVSS”: the “polyreactivity (PSR sort gate)” value is recorded as “low polyreactivity”.

With “QVQLVESGGGLVQAGGILRVSCAASGRIFRFYAMGWYRQAPGKERELVADISRRGGSTYYADSVKGRFTISRDNAKNTVYLQMNSLKPEDTAVYYCNARWYRTGSTYHDDYWGQGTQVTVSS”, the “polyreactivity (PSR sort gate)” value is given as “high polyreactivity”.

For “QVQLVESGGGLVQAGGILSLSCAASGRIFPDNTMGWYRQAPGKQRELVAVITYSGGSTYYADSVKGRFTISRDNAKNTVYLQMNSLNPEDTAVYYCAARDFYIWFAEVDYWGQGTLVTVSS”, the “polyreactivity (PSR sort gate)” value was “low polyreactivity”.

Turning to “QVQLVESGGGLVQAGGILSLSCAASGRTFCYYTMGWYRQAPGKERELVAAISSGGRTNYADSVKGRFTNSRDNAKITVYLQMISLKPEDTAVYYGATSLYYKYVERDYWGHGTQVTVSS”, the “polyreactivity (PSR sort gate)” value is recorded as “high polyreactivity”.

“QVQLVESGGGLVQAGGNLRLSCAASGFIFTRYAMGWYRQAPGKERELVAAISTSGDRTYYADSVKGRFTISRDNAKNTVYLQMNSLKPEDTAVYYCAVEASRAGAWYEYWGQGTQVTVSS”: the “polyreactivity (PSR sort gate)” value was “high polyreactivity”.

“QVQLVESGGGLVQAGGNLRLSCAASGRTFRFNAMGWYRQAPGKERELVAAISFRGGSTYYADSVKGRFTISRDNAKNTVYLQMTSLKPEDTAVYYCAADNPYQGRKFDYWGQGTQVSVSS”: the “polyreactivity (PSR sort gate)” value is recorded as “high polyreactivity”.

Consider “QVQLVESGGGLVQAGGNLRLSCAASGSIFAWYVMGWYRQPPGKERELVAGIDTSGGSTFYADSVKGRFTISRDNAKNTVYLQMNSLKPEDTAVYYCAADTWYRGPWEFDYWGQGTQVTVSS”, for which the “polyreactivity (PSR sort gate)” value is on record as “low polyreactivity”.

With “QVQLVESGGGLVQAGGPLRLSCAASGFTFGYYTMGWYRQAPGKERELVAAISWRGGRTYYADSVKGRFTISRDNAKNTVYLQMNSLKPEETAVYYCAAEYTYGWTYRPFVYWGQGTQVTVSS”, the “polyreactivity (PSR sort gate)” value was “high polyreactivity”.

For “QVQLVESGGGLVQAGGPLRVSCAASGIIFDYNAMGWYRQAPGKERELVAAITSTDNTNYADSVKGRFTISRDNAKNTVYLQKNCLKPEDTAVYYCAACSYSRYHYSLYFDFDYWGQGTQVTVSS”, the “polyreactivity (PSR sort gate)” value is “low polyreactivity”.

Consider “QVQLVESGGGLVQAGGRHRLSCAASGSTFSYNAMGWYRQAPGKERELVATISNTDSTNYADSVKGRFTISRDNAKNTVYLQMNSLKPEDTAVYYCAVVSARFDYEYWGQGTQVTVSS”, for which the “polyreactivity (PSR sort gate)” value is “low polyreactivity”.

Turning to “QVQLVESGGGLVQAGGRHRLSCAASGYIFKYYAMGWYRQAPGKERELVAAISRSGDSTYYADSVKGRFTISRDHAKNTVYLQMNSLKPEDTAVYYCNARYWHGPTGSDYWGQGTQVTVSS”, the “polyreactivity (PSR sort gate)” value is on record as “high polyreactivity”.

As for “QVQLVESGGGLVQAGGRLLLSCAASGRTFYRNAMGWYRQAPGKEREFVPSIRTSGGSTYYADSVKGRFTISRDNAKNTVYLQMNSLKPEDTAVYYCKKYRQQGWEFDYWGQGTQVTVSS”, the “polyreactivity (PSR sort gate)” value was “high polyreactivity”.

“QVQLVESGGGLVQAGGRLLLSSAASGSTFIWNGMGWYRQAPGKERELVAAITSSSTYYADSVKGRFTISRDNAKNTVYLQMNSLKPEDTAVYYCAATFIQVVVNVQLYDYDYWGQGTQVTVSS”: the “polyreactivity (PSR sort gate)” value is “low polyreactivity”.

As for “QVQLVESGGGLVQAGGRLRFSCAASGSNFPVYAMGWYRHAPGKERELVADITYTTGSTYYADSVKGRFTISRDNAKNTVYLQMHSLKPEDTGVYYCNARDYTWYLHLGYSTLYWGQGTQVTVSS”, the “polyreactivity (PSR sort gate)” value was “low polyreactivity”.

For the sequence “QVQLVESGGGLVQAGGRLRISCAASGFSFFSNAMGWYRQAPGKERELVAVIDRATSTYYADSVKGRFTISRDNAKNTVYLQMNSLKPEDTAVYYCNADGEEVYDFNYFLSFKGDYWGQGTQVTVSS”, the “polyreactivity (PSR sort gate)” value is recorded as “low polyreactivity”.

Take “QVQLVESGGGLVQAGGRLRISCAASGRIFPYNAMGWYRQAPGKERELVAAISFGGGRTYYADSVKGRFTISRDNAKNTVYLQMNSMKPEDTAVYYCNTASPQDIVFRVFYGGDYWGQGTQVTVSS”: the “polyreactivity (PSR sort gate)” value was “low polyreactivity”.

“QVQLVESGGGLVQAGGRLRLICAASGFNFKFYALGWYRQAPGKERELVAAITASSGRTYYADSVKGRFTISRDNAKNTVFLQMNSLKPEDTAVYYCAALGITYGRYDYWGQGTQVTVSS”: the “polyreactivity (PSR sort gate)” value is recorded as “high polyreactivity”.

“QVQLVESGGGLVQAGGRLRLSCAASASTFSDYAMGWYRQAPGKERELVATITSTGDTNYADSVKGRFTISRDNAKNTVYFQMYSLKPVDTAVYYCAAQHKKYGKRGLWNNFGYWGQGTQVTVSS”: the “polyreactivity (PSR sort gate)” value was “low polyreactivity”.

Consider “QVQLVESGGGLVQAGGRLRLSCAASGFIFDTKAMGWYRKAPGKERELGARISSSAGSTYYADSVKGLFTISRDNAKNTVYLQMNSLKPEDTAVYYCNRTYRLPVYKVDYWGQGTQVTVSS”, for which the “polyreactivity (PSR sort gate)” value is recorded as “low polyreactivity”.

On to “QVQLVESGGGLVQAGGRLRLSCAASGFIFGAYAMGWYRQAPGKERELVAAINWSGGSTYYADSVKGRFTISRDNAKNTVYLQMNSLKPEDTAVYYCNARYNGFYAYPRHDYWGQGTQVTVSS”, for which the “polyreactivity (PSR sort gate)” value is recorded as “low polyreactivity”.

For the sequence “QVQLVESGGGLVQAGGRLRLSCAASGFIFGTYTMGWYRQAPGKERELVAAITNGGSTYADSVKGRFTISRDNAKNTVYLQMISLKPEDTAVYYCAADYRGHSGAWYDYWGLGTQVTVSS”, the “polyreactivity (PSR sort gate)” value was “low polyreactivity”.

Take “QVQLVESGGGLVQAGGRLRLSCAASGFIFTPYTMGWYRQSPGTERELVAAITDGSSTYYADSVNGRFTISRDNAKNTVNLQMNSLKPEDTAVYYCNADGKQPYISWLYDYWGQGTQVTVSS”: the “polyreactivity (PSR sort gate)” value was “low polyreactivity”.
